What all share (type): physicochemical
The nature of series [1]: Protein incorporation / retention in macroscopic hydrogels. On the procedure:
Protein Incorporation into Macroscopic Hydrogels. Hydrogels were prepared as described above, except 1.5 μM CATCH(−)GFP or mCATCH(−)GFP was added to the 12 mM CATCH(−) solution. Immediately after hydrogel formation, fluorescence was visualized by placing the glass vials on a SafeImager 2.0 transilluminator (Invitrogen) and recording images with a digital still camera. 800 μL of PBS was then carefully overlaid on top of hydrogel. The samples were then incubated for 48 hours to evaluate the protein incorporation within the hydrogel. At various time points, fluorescence in the buffer supernatant was visualized by placing the glass vials on a SafeImager 2.0 transilluminator (Invitrogen) and recording images with a digital still camera. At the end-point, buffer supernatant was carefully removed by decanting and fluorescence was visualized by placing the glass vials on a SafeImager 2.0 transilluminator (Invitrogen) and recording images with a digital still camera.

The nature of series [2]: Nanofiber sedimentation, fusion protein integration into CATCH nanofibers. The following applies: 500 μM CATCH(4/4) or CATCH(6/6) nanofibers. Here is the method:
Briefly, 500 μM CATCH(4/4) nanofiber sedimentation in the presence of (FIG. 42A) ThT, (FIG. 42B) CATCH(6-)GFP, (FIG. 42C) mCATCH(6-)GFP. […] 500 μM CATCH(6/6) nanofiber sedimentation in the presence of (FIG. 42E) ThT, (FIG. 42F) CATCH(6-) GFP, (FIG. 42G) mCATCH(6-)GFP.

A short description of series [3]: Circular dichroism (secondary structure). The following applies: peptide incubated alone; CD maxima at 220 nm, minima at 200 nm. On the procedure:
Circular Dichroism. Circular Dichroism was performed on an AVIV 202 spectrometer. Peptides were prepared in 1× PBS at 500 μM, unless stated otherwise. Samples were run 3 times, averaged, and converted to mean residue ellipticity. All data reported was for dynode values <500 V.
On the technique in general: CD spectra are sensitive to the conformation of chiral molecules.

Series [4] in a line: Macroscopic hydrogel formation. The following applies: aqueous buffered solutions of 12 mM. On the procedure:
Macroscopic Hydrogel Formation. A 12 mM stock solution of CATCH(−) was prepared by dissolving dry peptide in 1× PBS and adjusting the pH to ˜7.6 with ammonium bicarbonate (Fisher). A 12 mM stock solution of CATCH(+) was prepared by dissolving dry peptide in 1×PBS and adjusting the pH to ˜7.2 with hydrochloric acid (0.5 N Fisher). CATCH peptide stock solutions were combined at a 1:1 (v/v) ratio in a 0.2 mL glass vial (Thermo), and the vial was gently swirled for 2 min until the hydrogel formed. The hydrogel was stained with red food coloring to aid visualization. Hydrogel images were recorded using a digital still camera.

For “CATCH(−)GFP: recombinant fusion of CATCH(−) and superfolder green fluorescent protein (GFP)”, in series [1] (CATCH hydrogels under volumetric excess of 1× PBS for 48 h), the “hydrogel fluorescence after incubation” value was “retained their fluorescence”. The “GFP in the buffer layer over hydrogels” value in series [1] (excess buffer, up to 48 h) is listed as “no GFP was detected”.
For the substance “Ac-EQEFEFEFEQE-Am (Ac-EQEFEFEFEQE-NH2) [CATCH(−)]”, the “integration into CATCH nanofibers” value in series [2] is “integrates into both CATCH(6/6) and CATCH(4/4) nanofibers”. For the same substance, the secondary structure result in series [3] is listed as “predominantly random coil”. Further, in series [4], the “flow behaviour / hydrogel formation” value was “free flowing”.
On to “Ac-QQKFKFKFKQQ-Am (Ac-QQKFKFKFKQQ-NH2) [CATCH(+)]”, for which, in series [3], the secondary structure entry is “predominantly random coil”. In series [4], the “flow behaviour / hydrogel formation” value is “free flowing”.

Values taken from patent US12152088B2, “Co-assembly peptides, nanostructures, and methods of making and using the same” (University of Florida Research Foundation, Incorporated, priority 2016, dated 2024).
